Test results taken from patent publication US20180142284, “MULTIPLEX ANALYSIS OF GENE EXPRESSION IN INDIVIDUAL LIVING CELLS” (THE GENERAL HOSPITAL CORPORATION, published 2018).

Key:
[1] = molecular target: PKR dsRBD (MAGIC factor), Alexa Fluor 488-labeled, not affinity purified (Homo sapiens) (UniProt P19525); experiment: pulldown; conditions: only 4% of labeled protein able to bind dsRNA
[2] = molecular target: T1, PKR dsRBD (MAGIC factor), Alexa Fluor 488-labeled, affinity purified on dsRNA-agarose (Homo sapiens, UniProt P19525 SEQ:22-205); experiment: EMSA; Kd value only in figure; about 30-fold higher affinity than unpurified labeled protein; conditions: tags: N-terminal His6; Alexa Fluor 488 on primary amines; label: Alexa Fluor 647
T1 chain: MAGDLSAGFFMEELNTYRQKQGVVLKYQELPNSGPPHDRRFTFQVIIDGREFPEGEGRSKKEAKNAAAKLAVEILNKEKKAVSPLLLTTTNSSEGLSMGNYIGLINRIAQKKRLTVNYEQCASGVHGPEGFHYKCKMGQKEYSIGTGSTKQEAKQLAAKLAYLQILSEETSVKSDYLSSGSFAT
Excerpt: (§1) MAGIC factor was fluorescently-labeled with Alexa Fluor 488 and then reacted with dsRNA-coupled agarose beads to separate binding, functional protein (eluate) from non-binding, non-functional protein (flow and wash fractions). […] Unlabeled and unpurified fluorescent MAGIC factor and affinity purified fluorescent MAGIC factor were reacted with Alexa Fluor 647-labeled dsRNA and ssRNA and run on a native gel. The gel was visualized in the RNA channel (Ex. 633 nm/Em. 670/30 nm BP), protein channel (Ex. 488 nm/Em. 526 nm SP) and FRET channel (Ex. 488 nm/Em. 670/30nm). […] The dashed lines represent the cutoff after which increasing concentrations of only unpurified MAGIC factor were reacted with dsRNA.

[3] = molecular target: T1, PKR dsRBD (MAGIC factor), Alexa Fluor …; experiment: EMSA; stated to bind specifically to dsRNA; gel result only in figure; conditions: tags: N-terminal His6; Alexa Fluor 488 on primary amines; label: Alexa Fluor 647
Excerpt: as §1

## dsRNA coupled to agarose beads
[1]
  binding signal: 4%

B1: EMSA dsRNA (dsRNA)
RNA 1: GAGUCCUUCCACGAUACC
RNA 2: GGUAUCGUGGAAGGACUC
modifications: aminoallyl-uridine in labeled strand; sequence printed with T, transcribed as RNA
[2]
  binding result: binds

## GAGUCCUUCCACGAUACC (ssRNA, aminoallyl-uridine; sequence printed with T, transcribed as RNA) [EMSA ssRNA]
[3]
  binding result: no binding
